The values that follow come from publication PMC3292258 (Nature, 2012).

This assay concerns the target T1, MBP-YDA (Arabidopsis, UniProt Q9CAD5 1-883).
T1 sequence (looked up): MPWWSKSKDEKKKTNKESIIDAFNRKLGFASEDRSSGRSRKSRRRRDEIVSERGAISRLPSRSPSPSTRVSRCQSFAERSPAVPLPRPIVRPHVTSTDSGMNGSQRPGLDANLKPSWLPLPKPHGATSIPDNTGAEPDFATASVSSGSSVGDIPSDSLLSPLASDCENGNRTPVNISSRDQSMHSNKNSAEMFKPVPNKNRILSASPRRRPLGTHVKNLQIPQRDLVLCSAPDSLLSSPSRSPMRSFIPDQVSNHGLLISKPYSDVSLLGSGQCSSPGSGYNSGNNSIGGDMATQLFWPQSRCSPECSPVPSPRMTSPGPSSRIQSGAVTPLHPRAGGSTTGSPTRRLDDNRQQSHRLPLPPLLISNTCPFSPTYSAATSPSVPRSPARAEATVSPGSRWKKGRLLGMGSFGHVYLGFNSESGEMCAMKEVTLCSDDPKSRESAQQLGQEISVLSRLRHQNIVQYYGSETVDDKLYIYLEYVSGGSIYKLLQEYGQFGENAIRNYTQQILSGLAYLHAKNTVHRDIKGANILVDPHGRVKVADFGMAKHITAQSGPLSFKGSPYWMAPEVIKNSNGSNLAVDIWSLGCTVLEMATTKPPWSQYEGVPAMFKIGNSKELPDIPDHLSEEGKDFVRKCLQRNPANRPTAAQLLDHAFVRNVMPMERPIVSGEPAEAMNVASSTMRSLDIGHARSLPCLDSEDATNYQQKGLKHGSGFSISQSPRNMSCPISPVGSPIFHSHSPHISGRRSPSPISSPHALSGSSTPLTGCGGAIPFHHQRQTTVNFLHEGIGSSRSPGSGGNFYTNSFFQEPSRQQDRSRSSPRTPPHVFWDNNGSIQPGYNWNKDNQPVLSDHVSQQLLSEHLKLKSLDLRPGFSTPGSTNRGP
Description: far-Western, overlay or dot blot.

B1: GST-BIN2 (enzyme, Arabidopsis, UniProt Q39011 1-380, looked up)
chain: MADDKEMPAAVVDGHDQVTGHIISTTIGGKNGEPKQTISYMAERVVGTGSFGIVFQAKCLETGETVAIKKVLQDRRYKNRELQLMRVMDHPNVVCLKHCFFSTTSKDELFLNLVMEYVPESLYRVLKHYSSANQRMPLVYVKLYMYQIFRGLAYIHNVAGVCHRDLKPQNLLVDPLTHQVKICDFGSAKQLVKGEANISYICSRFYRAPELIFGATEYTTSIDIWSAGCVLAELLLGQPLFPGENAVDQLVEIIKVLGTPTREEIRCMNPHYTDFRFPQIKAHPWHKIFHKRMPPEAIDFASRLLQYSPSLRCTALEACAHPFFDELREPNARLPNGRPFPPLFNFKQEVAGSSPELVNKLIPDHIKRQLGLSFLNQSGT
In the case of B1, the binding result is given as “binds”.
